Four molecules from patent US6790630 (NEW ENGLAND BIOLABS, dated 2004) can be followed below.

Sequences and labels used below:
T1: Erythrina cristagalli lectin (ECL), biotinylated (Erythrina cristagalli, UniProt P83410 1-239)
T1 construct: Lectin
T1 sequence: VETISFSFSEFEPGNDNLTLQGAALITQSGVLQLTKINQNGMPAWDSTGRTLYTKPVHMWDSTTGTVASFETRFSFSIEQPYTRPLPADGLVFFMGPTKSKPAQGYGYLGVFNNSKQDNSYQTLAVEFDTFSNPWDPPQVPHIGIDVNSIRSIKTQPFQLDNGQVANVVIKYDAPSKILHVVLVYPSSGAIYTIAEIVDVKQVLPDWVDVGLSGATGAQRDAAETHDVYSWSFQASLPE

T2: Peanut agglutinin (PNA), biotinylated (UniProt P02872 24-259)
T2 construct: Lectin
T2 sequence: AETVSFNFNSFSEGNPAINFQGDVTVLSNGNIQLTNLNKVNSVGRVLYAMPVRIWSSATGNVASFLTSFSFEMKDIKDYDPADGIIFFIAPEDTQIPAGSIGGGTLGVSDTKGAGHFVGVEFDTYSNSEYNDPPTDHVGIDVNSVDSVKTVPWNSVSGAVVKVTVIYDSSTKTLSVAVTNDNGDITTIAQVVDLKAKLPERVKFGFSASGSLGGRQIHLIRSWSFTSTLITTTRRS

B1: DiT33, native 31-33 kDa glycoprotein of Dirofilaria immitis (other)
chain: SVINRHNKRFAGFSVAGIGGTAGCVVVDNKLFANSFYLRDLTTEEQRELAQYVEDSNQYKEEVKTSLEERRKGWQLARHGEKDAKVLSSLAEKKFPKPPKKPSFCSAGDTTQYYFDGCMVQNNKIYVGRMYVRDLTSDEINQLKTFDAKMTAYQKYLSSSIQQQVDSLFGDKSNLFNLFTDTRHETSSQPSDATTISTTTQAPVEPPETPHFCIAIY
notes: also called doublet of 31 and 33 kDa; D. immitis homolog of Ov33
B2: Artpocarpus integrifolia (jacalin), biotinylated (other)
chain 1: GKAFDDGAFTGIREINLSYNKETAIGDFQVVYDLNGSPYVGQNHKSFITGFTPVKISLDFPSEYIMEVSGYTGNVSGYVVVRSLTFKTNKKTYGPYGVTSGTPFNLPIENGLIVGFKGSIGYWLDYFSMYLSL
chain 2: NEQSGKSQTVIVGSWGAKVS
B3: Ov33, native 31-33 kDa antigen of Onchocerca volvulus adult worms (other)
chain: GVVKRYNKRFAGFNVAGIGGNAGCVVVDNKLFANSFFLRELTTEEQRELAQYIEDSNRYKEEVKESLEERRKGWQLARDGKEDSKVLSALAEKKLPKPPKKPSFCSAGDTTQYYFDGCMVQNDKIYVGRAYVRDLTPDEVTQLKTFDAKMTAYQKYLSSTIQKQVDSLFGEKSNLFNLFADTRTEATSQASDDATAGATTTQAPVEAPEPPHFCVAIY
B4: Wheat germ agglutinin (WGA), biotinylated (other)
chain: QRCGEQGSNMECPNNLCCSQYGYCGMGGDYCGKGCQNGACWTSKRCGSQAGGATCTNNQCCSQYGYCGFGAEYCGAGCQGGPCRADIKCGSQAGGKLCPNNLCCSQWGFCGLGSEFCGGGCQSGACSTDKPCGKDAGGRVCTNNYCCSKWGSCGIGPGYCGAGCQSGGCDG
notes: Lectin

Experiment [1] concerns the target T3, Concanavilin A (Con-A), biotinylated (UniProt P02866 30-281).
T3 construct: Lectin
Description: lectin blot of affinity purified antigen.

Experiment [2] addresses T4, Phaseolus vulgaris erthroagglutinin (PHA-E), biotinylated (Phaseolus vulgaris, UniProt P05088 22-275).
T4 construct: Lectin
Description: lectin blot of affinity purified antigen.

The target of experiment [3] is T1, Erythrina cristagalli lectin (ECL), …. In words: lectin blot of affinity purified antigen.
Experiment [4] concerns the target T5, Soybean agglutinin (SBA), biotinylated (UniProt P05046 33-285).
T5 construct: Lectin
Description: lectin blot of affinity purified antigen.

The target of experiment [5] is T2, Peanut agglutinin (PNA), biotinylated. Description: lectin blot of affinity purified antigen.
The target of experiment [6] is B1. Description: lectin blot, biotinylated lectin 20 µg/ml.
The target of experiment [7] is B3. In words: lectin blot, biotinylated lectin 20 µg/ml.
Experiment [8] concerns the target B1. In words: lectin blot of affinity purified antigen.
Experiment [9] has as its target B3. In words: lectin blot of affinity purified antigen.

T5 sequence (P05046 33-285 limits assumed): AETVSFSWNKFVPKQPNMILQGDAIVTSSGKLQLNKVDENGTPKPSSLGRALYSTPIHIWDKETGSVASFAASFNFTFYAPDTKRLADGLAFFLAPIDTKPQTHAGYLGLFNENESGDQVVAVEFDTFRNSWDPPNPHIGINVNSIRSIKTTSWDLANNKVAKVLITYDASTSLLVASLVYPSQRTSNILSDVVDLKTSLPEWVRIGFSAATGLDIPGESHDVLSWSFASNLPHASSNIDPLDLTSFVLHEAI

With B1, the binding result in experiment [1], in experiment [2], in experiment [3], in [4] and in experiment [5] was “no binding (tested: 20 µg/ml)” throughout.
As for B2, the binding result in experiment [6] and in experiment [7] was “binds” throughout.
As for B3, the binding result in experiment [1], in experiment [2], in experiment [3], in experiment [4] and in experiment [5] was “no binding (tested: 20 µg/ml)” throughout.
Take B4: the binding result in experiment [8] and in experiment [9] was “no binding (tested: 20 µg/ml)” each time.
